# Source: patent publication US20200062804A1 (ADRX, published 2020)
# Non-standard residues stand in square brackets, D forms with d. No end group written: not given here. Chg = N[C@H](C(=O)O)C1CCCCC1; Phg = N[C@H](C(=O)O)c1ccccc1
# T1: Nat1 (LTIITLE) (also: TFA salt)
# T1 peptide: LTIITLE
# Target: T1, Nat1 (LTIITLE)
# Experiment: cell-based or functional assay
row,Binder,"IC50, Thiofiavin T aggregation assay [nM]"
1,LRIRRYR,76
2,[dR][dF][dY][dR][dR][dH][dR] [rfyrrhr],81
3,AYYYRHR,2120
4,LTRILWH,16200
5,ALIKYHR,629
6,[dK][dW][dR][dW][dY][dR][dR] [kwrwyrr],75
7,LLAKYHR,1730
8,IWIRRWR,1900
9,LYIRYLR,70
10,Ac-IRIRRYR-NH2 [Ac-IRIRRYR-NH2],69
11,TRIRFYR,64
12,IR[Chg]RRYR [Ile-Arg-Chg-Arg-Arg-Tyr-Arg],81
13,IRIRRWR,76
14,[dR][dL][dK][dW][dR][dW] [rlkwrw],702
15,WRIRRYR,514
16,LTIRTLH,537
17,[dQ][dF][dH][dY][dK][dR][dR] [qfhylcrr],23900
18,WTIMLWH,525
19,TYVYRRR,3660
20,LTRILTH,7370
21,IRIYRYK,60
22,[dR][dF][dH][dR][dH][dH][dR] [rfhrhhr],30900

row,Binder,"IC50, Thiofiavin T aggregation assay [nM]"
1,WTRITLE,1340
2,IHIEIK,723
3,[dQ][dW][dR][dW][dR][dH][dR] [qwrwrhr],3140
4,LSIRQH,945
5,TRIYRVK,3740
6,[dR][dQ][dW][dY][dR][dW][dQ] [rqwyrwq],2720
7,[dF][dA][dR][dA][dH][dR][dR] [farahrr],906
8,FFRLYLR,13400
9,LHIEHR,657
10,LWIKYHR,76
11,[dK][dL][dK][dK][dL][dH] [klkklh],71
12,YTIQLWH,46000
13,LTRITLE,1680
14,[dR][dM][dW][dR][dH][dH][dR] [rmwrhhr],13200
15,[dI][dL][dK][dW][dL][dW] [ilkwlw],1340
16,ILRLYFR,8970
17,[Phg]R[Phg]RRYR [Phg-Arg-Phg-Arg-Arg-Tyr-Arg],5950
18,[dK][dL][dK][dW][dQ][dW] [klkwqw],7310
19,[Chg]R[Chg]RRYR [Chg-Arg-Chg-Arg-Arg-Tyr-Arg],67
20,IRARRYR,1250
21,IFVYHH,703
22,[dQ][dV][dR][dY][dH][dK][dN] [qvryhkn],5700

row,Binder,"IC50, Thiofiavin T aggregation assay [nM]"
1,WTIRTWH,784
2,WTIKLTH,720
3,YTYMLWK,824
4,YYIRTYH,1600
5,[dS][dH][dW][dR][dH][dH][dR] [shwrhhr],2270
6,TYIYRQR,5170
7,IAIRRYR,74
8,[dK][dL][dK][dW][dA][dY] [klkway],12600
9,TFVFRHR,20300
10,IRIRAYR,23
11,FRLYIH,16400
12,[dH][dQ][dR][dR][dY][dQ][dR] [hqrryqr],39100
13,IRIRRYR,27
14,[dK][dL][dK][dW][dL][dW] [klkwlw],1060
15,WTIKLWH,84
16,[dW][dW][dR][dW][dY][dR][dR] [wwrwyrr],78
17,IRIRRYE,32800
18,LRIYRVR,81
19,[dQ][dL][dK][dW][dL][dH] [qlkwlh],716
20,LRIKYHR,71
